Data from article PMC5421877, “SOCS3 inhibits the pathological effects of IL-22 in non-melanoma skin tumor-derived keratinocytes” (Oncotarget, 2017).

Experiments:
[1] = test system: SOCS3 expression in healthy keratinocytes; assay: SOCS3 mRNA and protein induction in healthy keratinocytes; type: cell-based, human
Procedure: Figure 1 IL-22 induces SOCS3, which limits STAT3 and Erk1/2 activation (A) Keratinocyte cultures (n = 3) were stimulated with IL-22 or not for 10 min and protein lysates were subjected to immunoprecipitation and WB analyses for basal and phospho-IL-22R1, Tyk2 or Jak1. (B) WB of time-course experiments were performed on keratinocyte cultures (n = 3) to evaluate basal STAT3, Erk1/2 and MEK or phosphor-STAT3 (Tyr705 and Ser 727), phosphor-Erk1/2 and phospho-MEK. Anti-β-actin Ab was used to normalize sample loading. (C) SOCS mRNA and protein levels were detected by real-time PCR or WB analyses in cultured keratinocytes prepared from healthy skin (n = 3) left untreated or stimulated with IL-22 for the indicated time periods and normalized with β-actin values. (D) HaCaT cells stably transfected with myc-tagged SOCS1 (n = 4), SOCS2 (n = 2) and SOCS3 (n = 4) genes or control plasmids (mock, n = 3) were left untreated or stimulated with IL-22 for 15 min or 3 h and lysates subjected to WB with anti-phospho STAT3 (Tyr705), -phospho STAT3 (Ser727), -STAT3, -phospho Erk, -Erk, -c-myc and -β-actin Abs, as indicated. (E) Keratinocyte cultures were transiently transfected with siRNA specific for SOCS3 or control siRNA (NC). After 48-h transfection, cells were stimulated with IL-22 or not for the indicated time periods. In RNA interference experiments, data were obtained by three independent experiments, and SOCS3 depletion was assessed by real-time PCR and WB. […] Data are expressed as ratio of densitometric intensity (D. I.) of phosphorylated and unphosphorylated STAT3 and Erk1/2 proteins. p < 0.05 (*) values were considered significant.
Figure 4 SOCS3 and SOCS1 are poorly expressed in the epidermis of NMSC lesions and are not induced in transformed keratinocytes by IL-22 (A) Immunohistochemistry for SOCS3 and SOCS1 (red staining) was performed respectively on frozen or paraffin-embedded sections from biopsies of healthy skin (i), NLS (ii, iii) and LS (iv, v) areas of BCC and SCC, specimens. Psoriatic skin biopsies were also analyzed (vi). Sections were counterstained with Mayer's H&E and were visually evaluated by an pathologist experienced in dermatology. […] (B) Graphs show SOCS3 and SOCS1 mRNA levels which were detected by real-time PCR analysis in cultured SCC (CAL27 and CAL33) and BCC (M77015) skin tumor lines left untreated or stimulated with IL-22 or IFN-γ for 3 h and normalized for β-actin mRNA expression levels. […] SOCS1 was detected by IP using a specific anti-SOCS1 Ab, whereas SOCS3 by WB with an anti-SOCS3 Ab. […] Densitometric intensity (D.I.) of SOCS1 or SOCS3/β-actin was calculated from three independent experiments and numerically expressed as D. I. Ratio. *p < 0.01; **p < 0.05. […] SOCS3 and phospho-Tyr STAT3 levels were detected by WB and normalized to β-actin levels. […]

Tyk2 phosphorylation = Tyk2 phosphorylation in healthy keratinocytes (IL-22); type: cell-based, human; conditions: IL-22 10 min, no peptide, n = 3
Procedure: 2nd- or 3rd-passage cultures of human keratinocyte strains (n = 5), obtained as previously described, were grown in serum-free Keratinocyte Growth Medium (KGM; Clonetics, Walkersville, MD, USA), for 3–5 days (at 60–80% confluence) before performing experiments. The HaCaT human keratinocyte cell line was a gift from N.E. Fusenig (Deutsches Krebsforschungszentrum, Heidelberg, Germany), and was grown in Dulbecco modified Eagle medium (DMEM; Biochrom, Cambridge, UK) supplemented with 10% Fetalclone II serum (HyClone Laboratories, South Logan, UT, USA). SCC-derived cell lines, CAL27-and CAL33 (American Tissue Culture Collection, ATCC, Milan, Italy), SCC12, SCC13 and SCC-15 (kindly provided by Dr. A. Marconi, University of Modena e Reggio Emilia, Italy), as well as M77015-08 and TE354.T (ATCC) were grown in DMEM (Biocrhom AG, Cambridge, UK) with 10% fetal bovine serum (HyClone Laboratories). Primary cultures of healthy keratinocytes and skin tumor cell lines were treated with peptides (KIR, KIR-ESS, Ctrl1 and Ctrl2) resuspended in 1X PBS for 1 h and, then, stimulated with 50 ng/ml IL-22 or 200 U/ml IFN-γ (R&D Systems, Minneapolis, MN, USA) in keratinocyte basal medium (KBM, Clonetics) or DMEM, respectively.
Total protein extracts were prepared as previously reported. Immunoprecipitation and immunoblotting were performed accordingly to standard procedures. […]

B1: IL-22: cytokine stimulus, R&D Systems (protein, UniProt Q9GZX6 34-179, looked up)
Interleukin-22: APISSHCRLDKSNFQQPYITNRTFMLAKEASLADNNTDVRLIGEKLFHGVSMSERCYLMKQVLNFTLEEVLFPQSDRFQPYMQEVVPFLARLSNRLSTCHIEGDDLHIQRNVQKLKDTVKKLGESGEIKAIGELDLLFMSLRNACI
time of peak SOCS3 protein induction ([1]; IL-22 time course, WB, n = 3): 3 h
time of peak SOCS3 mRNA induction ([1]; IL-22 time course, real-time PCR, n = 3): 1 h
SOCS3 mRNA and protein expression ([1]; healthy keratinocytes, 3 h mRNA, 6 h protein): significantly induced mRNA and protein expression of SOCS3 in healthy keratinocytes
Tyk2 phosphorylation induced (Tyk2 phosphorylation): induced molecular cascade implicating phosphorylation of IL-22R1, Tyk2 and Jak1
